According to patent US20140242093A1, “METHODS AND COMPOSITIONS FOR MODULATING THE INNATE IMMUNE RESPONSE AND/OR MYOGENESIS IN A MAMMALIAN SUBJECT” (FRED HUTCHINSON CANCER RESEARCH CENTER, priority 2011, published 2014):

Test system: control human primary myoblasts
Test: Expression microarray of primary myoblasts transduced with lentivirus carrying DUX4-fl, DUX4-s or GFP
Description: Primary human myoblasts were collected and cultured as previously described (Snider et al., 2010). Primary myoblasts were maintained at or below 70% confluency for proliferation. For differentiation, cells were allowed to reach 95-100% confluency in growth medium. Once confluency was reached, the cells were changed to differentiation medium (F10 media supplemented with 1% horse serum, 10 μg/mL insulin, and 10 μg/mL transferrin, penicillin/streptomycin) and maintained for 4 days. Human RD cells were grown in DMEM in 10% bovine calf serum (Hyclone) and penicillin/streptomycin. The primary myoblasts were transduced with lentivirus carrying DUX-fl, DUX4- or GFP (MOI=15).
Expression microarrays were performed on the transduced cells at 24 hours after transduction as follows. […] Samples were analyzed by Illumina Human Whole Genome microarrays. Probe intensities were corrected, normalized, and summarized by the Lumi package of Bioconductor (Du et al., 2008). Differentially expressed genes were identified by the LIMMA package of Bioconductor (Wettenhall and Smyth, 2004). Gene set enrichment analysis (GSEA) was performed using the Bioconductor GOstats package (Falcon and Gentleman, 2007).

B1: DUX4-s: short splice form of DUX4 (SEQ ID NO:112), keeps the double-homeobox domains, lacks the C-terminal activation domain (protein, listed as Homo sapiens)
chain: MALPTPSDSTLPAEARGRGRRRRLVWTPSQSEALRACFERNPYPGIATRERLAQAIGIPEPRVQIWFQNERSRQLRQHRRESRPWPGRRGPPEGRRKRTAVTGSQTALLLRAFEKDRFPGIAAREELARETGLPESRIQIWFQNRRARHPGQGGRAPAQV
What does the source list for B1?
MYBPHL expression fc (cultured human skeletal muscle): −0.5205; MYF5 expression fc (cultured human skeletal muscle): 0.291; MYH13 expression fc (cultured human skeletal muscle): −1.541; NACC2 expression fc (cultured human skeletal muscle): 0.9823; NFIL3 expression fc (cultured human skeletal muscle): 0.3195; NFKB1 expression fc (cultured human skeletal muscle): 0.05546; NFKBIZ expression fc (cultured human skeletal muscle): −0.2644; NINJ1 expression fc (cultured human skeletal muscle): 0.2107; NPTX2 expression fc (cultured human skeletal muscle): 0.122; NRXN2 expression fc (cultured human skeletal muscle): −0.2444; NT5E expression fc (cultured human skeletal muscle): 0.489; OCEL1 expression fc (cultured human skeletal muscle): −0.0991; P2RX6 expression fc (cultured human skeletal muscle): −0.7432; PARP3 expression fc (cultured human skeletal muscle): 0.1606; PCK2 expression fc (cultured human skeletal muscle): 0.4194; PCTK3 expression fc (cultured human skeletal muscle): 0.5932; PDK4 expression fc (cultured human skeletal muscle): 0.02699; PDPN expression fc (cultured human skeletal muscle): −0.2902; PFKFB4 expression fc (cultured human skeletal muscle): 0.4582; PHF15 expression fc (cultured human skeletal muscle): 0.2557; PHLDA3 expression fc (cultured human skeletal muscle): 0.1958; PLA2G4C expression fc (cultured human skeletal muscle): 0.07403; PLEKHA4 expression fc (cultured human skeletal muscle): 1.33; PLIN2 expression fc (cultured human skeletal muscle): 0.6107; PLXNB1 expression fc (cultured human skeletal muscle): −0.09843; PLXNB2 expression fc (cultured human skeletal muscle): 0.2031; PPAP2B expression fc (cultured human skeletal muscle): 0.05885; PPP3CC expression fc (cultured human skeletal muscle): 0.2562; PRDM1 expression fc (cultured human skeletal muscle): −0.09376; PRKCD expression fc (cultured human skeletal muscle): 0.349; PSMB10 expression fc (cultured human skeletal muscle): 0.7464; PSME2 expression fc (cultured human skeletal muscle): 0.4304; PTGES expression fc (cultured human skeletal muscle): 0.3116; PTPRU expression fc (cultured human skeletal muscle): 0.2612; RALGDS expression fc (cultured human skeletal muscle): 0.0686; RBCK1 expression fc (cultured human skeletal muscle): 0.326; RBM43 expression fc (cultured human skeletal muscle): 0.3215; RCAN1 expression fc (cultured human skeletal muscle): 0.9917; RELB expression fc (cultured human skeletal muscle): 0.2914; RGS20 expression fc (cultured human skeletal muscle): 0.08652; RHBDF2 expression fc (cultured human skeletal muscle): 0.3815; RRAS expression fc (cultured human skeletal muscle): −0.1908; RRBP1 expression fc (cultured human skeletal muscle): 0.09904; RTKN expression fc (cultured human skeletal muscle): −0.2678; RTTN expression fc (cultured human skeletal muscle): 0.009387; RUSC1 expression fc (cultured human skeletal muscle): 0.03464; SERPING1 expression fc (cultured human skeletal muscle): 1.214; SESN1 expression fc (cultured human skeletal muscle): −0.1133; SHISA5 expression fc (cultured human skeletal muscle): −0.2735; SIX5 expression fc (cultured human skeletal muscle): −0.3614; SLC16A3 expression fc (cultured human skeletal muscle): 0.4873; SLC22A18 expression fc (cultured human skeletal muscle): −0.05235; SLC25A28 expression fc (cultured human skeletal muscle): 0.7251; SLC39A14 expression fc (cultured human skeletal muscle): 0.4801; SPTLC3 expression fc (cultured human skeletal muscle): 0.2428; SQSTM1 expression fc (cultured human skeletal muscle): 0.1771; SRGN expression fc (cultured human skeletal muscle): 0.2031; STC1 expression fc (cultured human skeletal muscle): 0.8132; STEAP3 expression fc (cultured human skeletal muscle): −0.291; SUSD2 expression fc (cultured human skeletal muscle): −2.022; TAPBP expression fc (cultured human skeletal muscle): 0.474; TCEA3 expression fc (cultured human skeletal muscle): −0.1206; TCP11L1 expression fc (cultured human skeletal muscle): 0.7816; TMEM45A expression fc (cultured human skeletal muscle): 0.4128; TMEM173 expression fc (cultured human skeletal muscle): 0.3673; TNFAIP2 expression fc (cultured human skeletal muscle): 0.05713; TNFRSF1A expression fc (cultured human skeletal muscle): 0.2727; TNFRSF6B expression fc (cultured human skeletal muscle): 0.00925; TNFSF13B expression fc (cultured human skeletal muscle): 2.19; TNS3 expression fc (cultured human skeletal muscle): −0.1648; TRAF3IP2 expression fc (cultured human skeletal muscle): 0.7299; TRIP6 expression fc (cultured human skeletal muscle): 0.003438; TRNP1 expression fc (cultured human skeletal muscle): 0.007844; TSC22D3 expression fc (cultured human skeletal muscle): 0.2002; VASN expression fc (cultured human skeletal muscle): 0.2877; VEZF1 expression fc (cultured human skeletal muscle): −0.6876; XBP1 expression fc (cultured human skeletal muscle): 0.3357; ZBTB4 expression fc (cultured human skeletal muscle): 0.002479; ZC3H12A expression fc (cultured human skeletal muscle): 0.5426; ZFHX3 expression fc (cultured human skeletal muscle): 0.5029; ZFP36L2 expression fc (cultured human skeletal muscle): 0.7338; ZFP90 expression fc (cultured human skeletal muscle): −0.1973; ZNF337 expression fc (cultured human skeletal muscle): −0.04356; ZNF395 expression fc (cultured human skeletal muscle): 0.2584; Log2 Fc AMACR (vs lenti-GFP, 24 h): 0.1 log2; Log2 Fc ARIH1 (vs lenti-GFP, 24 h): 0.8 log2; Log2 Fc ARS2 (vs lenti-GFP, 24 h): −0.2 log2; Log2 Fc CBARA1 (vs lenti-GFP, 24 h): −0.2 log2; Log2 Fc CD24 (vs lenti-GFP, 24 h): −0.4 log2; Log2 Fc CSAG3 (vs lenti-GFP, 24 h): 0.1 log2; Log2 Fc CSE1L (vs lenti-GFP, 24 h): 0.1 log2; Log2 Fc CWC15 (vs lenti-GFP, 24 h): 0.1 log2; Log2 Fc CXADR (vs lenti-GFP, 24 h): −0.1 log2; Log2 Fc CXCR4 (vs lenti-GFP, 24 h): −0.1 log2; Log2 Fc DBR1 (vs lenti-GFP, 24 h): 0.2 log2; Log2 Fc DEFB103B (vs lenti-GFP, 24 h): 0.1 log2; Log2 Fc FBXO33 (vs lenti-GFP, 24 h): 0.2 log2; Log2 Fc FGFR3 (vs lenti-GFP, 24 h): 0.0 log2; Log2 Fc FLJ45337 (vs lenti-GFP, 24 h): −0.2 log2; Log2 Fc GTF2F1 (vs lenti-GFP, 24 h): 0.3 log2; Log2 Fc HNRNPCL1 (vs lenti-GFP, 24 h): −0.1 log2; Log2 Fc HOXB2 (vs lenti-GFP, 24 h): 0.0 log2; Log2 Fc HSPA2 (vs lenti-GFP, 24 h): −0.3 log2; Log2 Fc ID2 (vs lenti-GFP, 24 h): 0.3 log2; Log2 Fc IFRD1 (vs lenti-GFP, 24 h): −0.2 log2; Log2 Fc JUP (vs lenti-GFP, 24 h): −0.1 log2; Log2 Fc KHDC1L (vs lenti-GFP, 24 h): −0.1 log2; Log2 Fc MBD3L2 (vs lenti-GFP, 24 h): 0.0 log2; Log2 Fc MED26 (vs lenti-GFP, 24 h): 0.1 log2; Log2 Fc MGC10997 (vs lenti-GFP, 24 h): −0.3 log2; Log2 Fc PABPN1 (vs lenti-GFP, 24 h): −0.3 log2; Log2 Fc PELI1 (vs lenti-GFP, 24 h): 0.1 log2; Log2 Fc PNMA6B (vs lenti-GFP, 24 h): −0.2 log2; Log2 Fc PRAMEF1 (vs lenti-GFP, 24 h): 0.1 log2; Log2 Fc PVRL3 (vs lenti-GFP, 24 h): 0.4 log2; Log2 Fc RMRP (vs lenti-GFP, 24 h): 0.1 log2; Log2 Fc RNGTT (vs lenti-GFP, 24 h): −0.6 log2; Log2 Fc RPPH1 (vs lenti-GFP, 24 h): 0.2 log2; Log2 Fc RRN3 (vs lenti-GFP, 24 h): 0.1 log2; Log2 Fc SFRS2B (vs lenti-GFP, 24 h): −0.3 log2; Log2 Fc SFRS17A (vs lenti-GFP, 24 h): 0.2 log2; Log2 Fc SIAH1 (vs lenti-GFP, 24 h): −0.1 log2; Log2 Fc SLC2A14 (vs lenti-GFP, 24 h): 0.2 log2; Log2 Fc SLC34A2 (vs lenti-GFP, 24 h): 0.0 log2; Log2 Fc SNIP1 (vs lenti-GFP, 24 h): −0.2 log2; Log2 Fc SON (vs lenti-GFP, 24 h): −0.3 log2; Log2 Fc SPRYD5 (vs lenti-GFP, 24 h): −0.1 log2; Log2 Fc SPTY2D1 (vs lenti-GFP, 24 h): −0.3 log2; Log2 Fc TFIP11 (vs lenti-GFP, 24 h): 0.1 log2; Log2 Fc THOC4 (vs lenti-GFP, 24 h): −0.2 log2; Log2 Fc TPRX1 (vs lenti-GFP, 24 h): −0.1 log2; Log2 Fc TRIM23 (vs lenti-GFP, 24 h): 0.6 log2; Log2 Fc TRIM43 (vs lenti-GFP, 24 h): 0.0 log2; Log2 Fc USP29 (vs lenti-GFP, 24 h): −0.1 log2; Log2 Fc ZNF217 (vs lenti-GFP, 24 h): −0.3 log2; Log2 Fc ZNF705A (vs lenti-GFP, 24 h): −0.1 log2; Log2 Fc ZNHIT6 (vs lenti-GFP, 24 h): 0.3 log2; Log2 Fc ZSCAN2 (vs lenti-GFP, 24 h): −0.2 log2; Log2 Fc ZSCAN4 (vs lenti-GFP, 24 h): 0.0 log2
